Test results: patent publication US20130236459A1 (MERRIMACK PHARMACEUTICALS, published 2013)
Where two headings read alike, the source gives them in different places.

B1: ANTI-ErbB3 Ab# A (antibody, V domains shown)
VH: QVQLQQWGAGLLKPSETLSLTCAVYGGSFSGYYWSWIRQPPGKGLEWIGEINHSGSTNYNPSLKSRVTISVETSKNQFSLKLSSVTAADTAVYYCARDKWTWYFDLWGRGTLVTVSS
VL: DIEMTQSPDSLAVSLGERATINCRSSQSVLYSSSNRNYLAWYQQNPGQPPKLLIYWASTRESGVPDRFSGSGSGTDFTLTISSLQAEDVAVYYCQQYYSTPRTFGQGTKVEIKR
B2: ANTI-IGF-1R Ab# A (ganitumab) (antibody, V domains shown)
VH: QVQLQESGPGLVKPSGTLSLTCAVSGGSISSSNWWSWVRQPPGKGLEWIGEIYHSGSTNYNPSLKSRVTISVDKSKNQFSLKLSSVTAADTAVYYCARWTGRTDAFDIWGQGTMVTVSS
VL: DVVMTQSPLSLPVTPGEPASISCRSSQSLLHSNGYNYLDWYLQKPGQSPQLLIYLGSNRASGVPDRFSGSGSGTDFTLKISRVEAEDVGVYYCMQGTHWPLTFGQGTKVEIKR
B3: P4-G1-M1.3 (bispecific antibody, human IgG1, kappa)
heavy: not shown
light: DIQMTQSPSSLSASLGDRVTITCRASQGISSYLAWYQQKPGKAPKLLIYAKSTLQSGVPSRFSGSGSGTDFTLTISSLQPEDSATYYCQQYWTFPLTFGGGTKVEIKRTVAAPSVFIFPPSDEQLKSGTASVVCLLNNFYPREAKVQWKVDNALQSGNSQESVTEQDSKDSTYSLSSTLTLSKADYEKHKVYACEVTHQGLSSPVTKSFNRGEC
B4: B60-G1-M57 (bispecific antibody, human IgG1, lambda)
heavy: not shown
light: SSELTQDPAVSVALGQTVRITCQGDSLRSYYASWYQQKPGQAPVLVIYGKNNRPSGIPDRFSGSSSGNTASLTITGAQAEDEADYYCNSRDWPGNQWVFGGGTKVTVLGQPKAAPSVTLFPPSSEELQANKATLVCLVSDFYPGAVTVAWKADGSPVKVGVETTKPSKQSNNKYAASSYLSLTPEQWKSHRSYSCRVTHEGSTVEKTVAPAECS
B5: B60-G1-P4 (bispecific antibody, human IgG1, lambda)
heavy: not shown
light: B4 light
B6: Anti-IGF-1R Ab# B (cixutumumab) (antibody, V domains shown)
VH: EVQLVQSGAEVKKPGSSVKVSCKASGGTFSSYAISWVRQAPGQGLEWMGGIIPIFGTANYAQKFQGRVTITADKSTSTAYMELSSLRSEDTAVYYCARAPLRFLEWSTQDHYYYYYMDVWGKGTTVTVSS
VL: SSELTQDPAVSVALGQTVRITCQGDSLRSYYATWYQQKPGQAPILVIYGENKRPSGIPDRFSGSSSGNTASLTITGAQAEDEADYYCKSRDGSGQHLVFGGGTKLTVLG

Tests used:
Assay in all cases: cell-based or functional assay
[1] = target: T1, ErbB3 (HER3), endogenous on human tumor cell lines (human, UniProt P21860 20-1342)
[2] = target: T1, ErbB3 (HER3), endogenous on human tumor …; remark: listed apart in the source
[3] = target: T1, ErbB3 (HER3), endogenous on human tumor …; remark: listed apart in the source
[4] = target: T1, ErbB3 (HER3), endogenous on human tumor …; remark: listed apart in the source
[5] = target: T1, ErbB3 (HER3), endogenous on human tumor …; remark: listed apart in the source
[6] = target: T2, IGF-1R (receptor for insulin-like growth factor 1), endogenous on human tumor cell lines (human, UniProt P08069 31-1367)
[7] = target: T2, IGF-1R (receptor for insulin-like …); remark: listed apart in the source
[8] = target: T2, IGF-1R (receptor for insulin-like …); remark: listed apart in the source
[9] = target: T2, IGF-1R (receptor for insulin-like …); remark: listed apart in the source
[10] = target: T2, IGF-1R (receptor for insulin-like …); remark: listed apart in the source
[11] = target: T1, ErbB3 (HER3), endogenous on human tumor …; remark: listed apart in the source
[12] = target: T2, IGF-1R (receptor for insulin-like …); remark: listed apart in the source
[13] = target: T2, IGF-1R (receptor for insulin-like …); remark: listed apart in the source

T1 sequence (P21860 20-1342 limits assumed): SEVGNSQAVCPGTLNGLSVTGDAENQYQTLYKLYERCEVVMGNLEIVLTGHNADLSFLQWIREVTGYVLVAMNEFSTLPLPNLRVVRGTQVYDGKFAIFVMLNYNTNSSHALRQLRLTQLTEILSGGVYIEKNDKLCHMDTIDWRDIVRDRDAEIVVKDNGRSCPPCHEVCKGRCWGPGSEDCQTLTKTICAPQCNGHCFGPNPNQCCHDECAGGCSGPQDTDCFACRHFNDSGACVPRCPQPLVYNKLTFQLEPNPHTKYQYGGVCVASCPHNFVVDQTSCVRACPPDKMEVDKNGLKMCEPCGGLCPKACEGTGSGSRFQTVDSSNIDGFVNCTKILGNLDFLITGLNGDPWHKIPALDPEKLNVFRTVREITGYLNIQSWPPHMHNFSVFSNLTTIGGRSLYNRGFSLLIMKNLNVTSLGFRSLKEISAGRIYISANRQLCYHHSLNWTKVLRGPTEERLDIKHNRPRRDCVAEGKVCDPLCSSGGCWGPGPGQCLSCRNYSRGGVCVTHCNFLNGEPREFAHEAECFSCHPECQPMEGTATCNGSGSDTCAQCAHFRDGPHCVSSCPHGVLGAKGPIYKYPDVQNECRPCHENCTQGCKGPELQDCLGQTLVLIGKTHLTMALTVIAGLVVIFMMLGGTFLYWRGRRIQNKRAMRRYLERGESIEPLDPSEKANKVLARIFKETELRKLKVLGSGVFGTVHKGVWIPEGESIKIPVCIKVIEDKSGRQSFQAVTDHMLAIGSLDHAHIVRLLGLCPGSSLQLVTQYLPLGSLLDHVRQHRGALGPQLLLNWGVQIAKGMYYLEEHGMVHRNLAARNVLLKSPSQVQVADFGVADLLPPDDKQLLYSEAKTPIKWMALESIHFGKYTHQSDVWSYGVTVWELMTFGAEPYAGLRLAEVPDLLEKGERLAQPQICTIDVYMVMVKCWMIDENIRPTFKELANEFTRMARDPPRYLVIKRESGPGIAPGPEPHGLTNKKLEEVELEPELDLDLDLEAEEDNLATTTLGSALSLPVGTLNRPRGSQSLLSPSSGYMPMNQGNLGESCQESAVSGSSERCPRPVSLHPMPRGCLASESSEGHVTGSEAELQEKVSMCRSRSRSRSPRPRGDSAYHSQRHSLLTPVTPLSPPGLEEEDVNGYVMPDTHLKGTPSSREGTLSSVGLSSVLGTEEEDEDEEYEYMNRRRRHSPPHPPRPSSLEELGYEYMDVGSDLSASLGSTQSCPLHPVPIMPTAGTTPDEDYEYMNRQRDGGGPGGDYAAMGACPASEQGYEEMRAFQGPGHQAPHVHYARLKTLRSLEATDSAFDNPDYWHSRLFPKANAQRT
T2 sequence (P08069 31-1367): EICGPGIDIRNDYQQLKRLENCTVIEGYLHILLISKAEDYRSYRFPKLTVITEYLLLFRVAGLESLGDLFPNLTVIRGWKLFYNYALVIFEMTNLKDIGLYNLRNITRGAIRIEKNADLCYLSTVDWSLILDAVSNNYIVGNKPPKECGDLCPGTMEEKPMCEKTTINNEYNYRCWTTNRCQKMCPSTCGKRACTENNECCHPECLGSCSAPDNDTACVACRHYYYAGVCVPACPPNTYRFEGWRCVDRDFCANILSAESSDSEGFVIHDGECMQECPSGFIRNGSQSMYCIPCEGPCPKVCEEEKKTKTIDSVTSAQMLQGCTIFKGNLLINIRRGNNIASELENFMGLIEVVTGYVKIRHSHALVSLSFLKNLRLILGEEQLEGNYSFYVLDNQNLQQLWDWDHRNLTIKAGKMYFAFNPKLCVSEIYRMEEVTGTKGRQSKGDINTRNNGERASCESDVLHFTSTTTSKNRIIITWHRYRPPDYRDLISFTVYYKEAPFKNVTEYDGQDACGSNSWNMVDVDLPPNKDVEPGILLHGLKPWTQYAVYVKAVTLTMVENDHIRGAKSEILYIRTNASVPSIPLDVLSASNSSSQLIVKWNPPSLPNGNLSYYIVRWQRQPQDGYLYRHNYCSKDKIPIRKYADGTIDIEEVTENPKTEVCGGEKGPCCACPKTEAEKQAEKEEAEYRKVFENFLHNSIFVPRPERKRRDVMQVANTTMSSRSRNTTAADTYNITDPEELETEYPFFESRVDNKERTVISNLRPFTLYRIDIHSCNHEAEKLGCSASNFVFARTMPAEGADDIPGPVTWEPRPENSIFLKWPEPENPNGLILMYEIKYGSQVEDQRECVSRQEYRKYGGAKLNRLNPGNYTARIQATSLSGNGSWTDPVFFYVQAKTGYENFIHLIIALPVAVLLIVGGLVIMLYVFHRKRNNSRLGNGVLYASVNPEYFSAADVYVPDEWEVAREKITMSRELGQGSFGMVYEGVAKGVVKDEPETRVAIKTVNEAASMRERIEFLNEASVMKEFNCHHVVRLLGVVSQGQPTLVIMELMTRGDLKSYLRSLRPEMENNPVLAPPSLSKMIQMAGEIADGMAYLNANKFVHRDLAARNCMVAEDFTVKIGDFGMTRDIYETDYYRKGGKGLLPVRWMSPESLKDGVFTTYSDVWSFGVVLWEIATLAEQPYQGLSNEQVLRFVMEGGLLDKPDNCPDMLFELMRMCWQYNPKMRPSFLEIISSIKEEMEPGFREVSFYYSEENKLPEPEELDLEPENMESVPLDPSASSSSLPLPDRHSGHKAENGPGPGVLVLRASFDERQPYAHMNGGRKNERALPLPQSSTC

Binder	pErbB3 IC50 (BxPC-3) [1]	pAKT IC50 (BxPC-3, HRG 20 ng/ml) [4] [M]	pAKT IC50 (BxPC-3, HRG 200 ng/ml) [4] [M]	pErbB3 IC50 (BxPC-3, HRG 20 ng/ml) [4] [M]	pErbB3 IC50 (BxPC-3, HRG 200 ng/ml) [4] [M]	pIGF1R IC50 (BxPC-3) [6]	% IGF1R Downregulation (A549, 24 h) [8] [%]	% IGF1R Downregulation (BxPC-3, 24 h) [8] [%]	pAKT IC50 (BxPC-3, IGF1 40 ng/ml) [10] [M]	pAKT IC50 (BxPC-3, IGF1 400 ng/ml) [10] [M]	pIGF1R IC50 (BxPC-3, IGF1 40 ng/ml) [10] [M]	pIGF1R IC50 (BxPC-3, IGF1 400 ng/ml) [10] [M]	pErbB3 % Inhibition (BxPC-3) [11] [%]	pErbB3 IC50 (BxPC-3) [11]	pIGF1R % Inhibition (BxPC-3) [12] [%]	pIGF1R IC50 (BxPC-3) [12]	further results
B1	9.2e-11 M (inferred)	3.06e-10	3.26e-10	2.41e-10	1.98e-10	–	–	–	–	–	–	–	–	–	–	–	pAKT IC50 (BxPC-3) [1]: 3.5e-10 M (inferred); pAKT IC50 (BxPC-3) [2]: 5.7e-09 M (inferred); pErbB3 IC50 (BxPC-3) [2]: 4.3e-10 M (inferred); pAKT IC50 (BxPC-3 50% ErbB3 KD) [3]: 2.8e-10 M; pAKT IC50 (BxPC-3 50% IGF1R KD) [3]: 1.6e-09 M; pAKT IC50 (BxPC-3 Vector Control) [3]: 2.5e-09 M; pAKT IC50 (BxPC-3) [5]: 3.9e-10 M (inferred); pAKT IC50 (DU145) [5]: 2.8e-10 M (inferred); pErbB3 IC50 (BxPC-3) [5]: 5.1e-11 M (inferred); pErbB3 IC50 (DU145) [5]: 8.2e-11 M (inferred)
B2	–	–	–	–	–	1.6e-09 M (inferred)	57	51	7.4e-09	9.1e-09	7.8e-10	2.5e-10	–	–	–	–	pAKT IC50 (BxPC-3) [6]: 8e-11 M (inferred); pAKT IC50 (BxPC-3) [7]: 2.6e-10 M (inferred); pIGF-1R IC50 (BxPC-3) [7]: 1.5e-10 M (inferred); pAKT IC50 (BxPC-3 50% ErbB3 KD) [9]: 1.3e-07 M; pAKT IC50 (BxPC-3 50% IGF1R KD) [9]: 4e-08 M; pAKT IC50 (BxPC-3 Vector Control) [9]: 2.1e-08 M
B3	5.3e-11 M (inferred)	3.97e-11	4.09e-11	3.12e-11	2.72e-11	1.1e-09 M (inferred)	72	71	1.4e-10	2.1e-10	1.2e-10	9.9e-11	94	5.5e-11 M (inferred)	92	1.8e-10 M (inferred)	–
B4	2.3e-11 M (inferred)	–	–	–	–	4.4e-09 M (inferred)	–	–	–	–	–	–	162	1.2e-09 M (inferred)	85	1e-08 M (inferred)	–
B5	~2.4e-14 M (inferred)	–	–	–	–	2.2e-08 M (inferred)	–	–	–	–	–	–	99	4e-11 M (inferred)	88	4.4e-09 M (inferred)	–
B6	–	–	–	–	–	–	–	–	–	–	–	–	–	–	–	–	pAKT IC50 (BxPC-3) [13]: 1.4e-08 M (inferred); pAKT IC50 (DU145) [13]: 9.8e-09 M (inferred); pIGF-1R IC50 (BxPC-3) [13]: 2.4e-09 M (inferred); pIGF-1R IC50 (DU145) [13]: 9.1e-10 M (inferred)
